We go through ten molecules from publication PMC13254535, “The RecBCD complex interacts directly with the DNA sliding clamp in Escherichia coli” (Nucleic Acids Research, 2026).

As usually defined, the Kd is the constant that tells how readily two partners part at equilibrium.

The target in one assay is β-clamp (Escherichia coli, UniProt P0A988). The assay is described as follows: Saturation transfer difference (STD)-NMR of peptides with β-clamp. The assay is classed as binding. More on the design: made in house. To be noted: 150 µM peptide, 1.5 µM β-clamp; 25°C; 20 mM sodium phosphate, 100 mM NaCl, 5 mM DTT, 0.3% DMSO, 5% D2O, pH 7.4; 600 MHz.
Sequence of β-clamp (P0A988 whole entry): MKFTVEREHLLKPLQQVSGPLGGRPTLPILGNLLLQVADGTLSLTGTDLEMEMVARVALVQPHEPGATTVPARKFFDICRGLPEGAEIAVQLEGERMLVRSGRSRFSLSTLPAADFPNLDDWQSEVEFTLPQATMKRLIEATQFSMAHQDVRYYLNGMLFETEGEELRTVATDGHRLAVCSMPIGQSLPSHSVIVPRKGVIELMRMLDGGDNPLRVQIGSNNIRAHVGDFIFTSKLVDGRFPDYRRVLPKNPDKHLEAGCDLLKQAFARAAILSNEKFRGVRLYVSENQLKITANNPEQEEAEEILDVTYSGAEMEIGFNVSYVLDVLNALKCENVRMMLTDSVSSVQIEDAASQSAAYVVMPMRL
The target in assay [1] is T1, Escherichia coli β-clamp (DnaN), recombinantly expressed and purified (Escherichia coli, UniProt P0A988 1-366).
T1 construct: β-clamp (dnaN), E. coli; homodimer; Unlabeled in STD-NMR and ITC; 2H,13C,15N-labeled in the TROSY-HSQC experiments; also called DNA sliding clamp; source: recombinantly expressed and purified as previously described [54]
T1 sequence (P0A988 whole entry): as above
Briefly: STD-NMR; 150 µM peptide with 1.5 µM unlabeled β-clamp, 20 mM sodium phosphate, 100 mM NaCl, 5 mM DTT, 0.3% DMSO, pH 7.4, 25°C. To be noted: both partners purified.

Assay [2] relates to ΔrecA ΔrecB cells. The assay is described as follows: Basal DNA content without UV. Type of assay: cell-based, Escherichia coli. To be noted: expressed from pUT18C in ΔrecA ΔrecB; no UV; compared to wild-type RecB. On the procedure:
(§1) IMR13 (ΔrecA) served as a positive control for RecB-mediated DNA degradation, while IMR19 (ΔrecA ΔrecB) was used as a negative control.
(§2) Overnight cultures were diluted to an OD600 of 0.01 into LB medium supplemented with appropriate antibiotics and incubated with shaking at 37°C until they reached an OD600 of 0.2. Each culture was split into two 1 ml aliquots. One aliquot was fixed immediately in ethanol (50% final concentration) to assess DNA content prior to UV exposure. The second aliquot was pelleted, resuspended in 1× PBS, and exposed to UV light at a dose of 50 J/m^2 (CL-1000 Ultraviolet crosslinker, UVP). […]
(§3) Imaging was performed on a Leica DM6000 B fluorescence microscope equipped with a 100× oil immersion objective (Leica HCX Plan Apochromat 100×, 1.40 NA, PH3 CS), a Leica EL6000 metal-halide illumination system, and a Hamamatsu C9100-14 EM-CCD camera. For each sample, six fields of view were acquired, each including both phase-contrast and fluorescence channels. Fluorescence imaging was conducted using a narrow band-pass filter set optimized for CFP (Excitation: 426–446 nm; Emission: 460–500 nm; exposure time: 30 ms). All imaging parameters—including exposure time, illumination intensity, and gain—were kept constant across all strains, treatments, and replicates to ensure quantitative comparability and minimize experimental bias. […]

The test system of another assay is BTH101 ΔrecB cells. Briefly: Western blot of RecB expression level. The following applies: pUT18C constructs in BTH101 ΔrecB; Ponceau S normalized; relative to BTH101 wild type. More on the design: species or system Escherichia coli.
Assay [3] has as its system ΔrecA ΔrecB cells. Briefly: DNA degradation assay after UV ("reckless" DNA degradation). The assay is classed as cell-based, Escherichia coli. The following applies: expressed from pUT18C in ΔrecA ΔrecB; UV 50 J/m^2, 3 h; Hoechst 33258 microscopy. On the procedure: as §1, §2, §3
The test system of another assay is RecA. The following applies: RecB mutation D1080A; ref [82]; cited from earlier work.
The test system of another assay is recB strains. The following applies: RecB mutation D1080A; ref [82]; cited from earlier work.
Assay [4] deals with T1, Escherichia coli β-clamp (DnaN), …. Briefly: ITC; 278-294 µM β-clamp in the syringe titrated into 70.6 µM peptide in the cell; 20 mM sodium phosphate, 100 mM NaCl, 1 mM TCEP, 0.02% DMSO, pH 7.4, 25°C; one-site model; three replicates. The following applies: both partners purified. Background: ITC needs no label: the signal is the heat of the interaction.

Experimental for BTH101 ΔrecB cells: Samples, including purified RecB, β-clamp (purified as previously explained for co-immunoprecipitation), input (10 µg; 0.5%), and pull-down eluates, and samples from BTH101 cultures used in survival assays, were mixed with 1 mM dithiothreitol (DTT) and 1× NuPAGE LDS sample buffer, then heated to 75°C for 10 min. […] SeeBlue Plus2 Pre-stained Protein Standard (Invitrogen) was used as a molecular weight marker.
Proteins were transferred onto 0.2-µm nitrocellulose membranes using the Trans-Blot Turbo Transfer System (Bio-Rad), and membranes were blocked in 5% (w/v) skim milk (Merck) in PBS-T (PBS with 0.1% Tween-20) for 45–60 min at room temperature. […] Following protein transfer, these membranes were also incubated in 0.1% (w/v) Ponceau S solution for 5 min to verify transfer efficiency and account for total protein loading. The stain was visualized, imaged for densitometric normalization, and subsequently removed by washing with deionized water prior to blocking. […]
Relative RecB levels were quantified from the western blot images using Fiji (ImageJ) [58]. […] The lane profiles were plotted, and the measured signal from each lane was first normalized to the relevant Ponceau stain signal from the same lane and then to the wild-type strain.

For the molecule “KQVEMEAY [QVEMEF variant in which the terminal phenylalanine was replaced with alanine]”, at β-clamp, the STD-NMR binding entry was “no detectable binding”.
Same read-out and setting: the entry for “GKNQALRFV [RecB helicase motif peptide (residues 485–489) with one C-terminal and three N-terminal flanking residues]” is “did not exhibit detectable STD signals under the conditions tested”; for “GQADMFG [DNA polymerase III internal CBM peptide, positive control, reference compound]” it is “clear binding”.
Same read-out and setting: the value for “EQVELEFD [DNA polymerase III C-terminal CBM peptide, positive control, reference compound]” was “clear binding”.
Same read-out and setting: the value for “GKNQALRAV [phenylalanine-to-alanine variant of the RecB helicase motif peptide]” was “did not exhibit detectable STD signals under the conditions tested”.

B1: Pol III internal peptide (GQADMFG) (peptide)
peptide: Ac-GQADMFG-NH2
notes: also called QADMF peptide; source: synthetic peptide; bought: TAG Copenhagen
In the case of B1, in assay [1], the binding result was “binds”.

B2: Pol III C-terminal peptide (EQVELEFD) (peptide)
peptide: EQVELEFD
notes: free termini; also called QVELEF peptide; source: synthetic peptide; bought: TAG Copenhagen
On to B2, for which, in assay [1], the binding result is given as “binds”.

B3: RecBF489A: RecB with an F489A substitution in the QALRF motif (protein, UniProt P08394 2-1180, looked up, variant F489A)
RecBCD enzyme subunit RecB: SDVAETLDPLRLPLQGERLIEASAGTGKTFTIAALYLRLLLGLGGSAAFPRPLTVEELLVVTFTEAATAELRGRIRSNIHELRIACLRETTDNPLYERLLEEIDDKAQAAQWLLLAERQMDEAAVFTIHGFCQRMLNLNAFESGMLFEQQLIEDESLLRYQACADFWRRHCYPLPREIAQVVFETWKGPQALLRDINRYLQGEAPVIKAPPPDDETLASRHAQIVARIDTVKQQWRDAVGELDALIESSGIDRRKFNRSNQAKWIDKISAWAEEETNSYQLPESLEKFSQRFLEDRTKAGGETPRHPLFEAIDQLLAEPLSIRDLVITRALAEIRETVAREKRRRGELGFDDMLSRLDSALRSESGEVLAAAIRTRFPVAMIDEFQDTDPQQYRIFRRIWHHQPETALLLIGDPKQAIYAFRGADIFTYMKARSEVHAHYTLDTNWRSAPGMVNSVNKLFSQTDDAFMFREIPFIPVKSAGKNQALRAVFKGETQPAMKMWLMEGESCGVGDYQSTMAQVCAAQIRDWLQAGQRGEALLMNGDDARPVRASDISVLVRSRQEAAQVRDALTLLEIPSVYLSNRDSVFETLEAQEMLWLLQAVMTPERENTLRSALATSMMGLNALDIETLNNDEHAWDVVVEEFDGYRQIWRKRGVMPMLRALMSARNIAENLLATAGGERRLTDILHISELLQEAGTQLESEHALVRWLSQHILEPDSNASSQQMRLESDKHLVQIVTIHKSKGLEYPLVWLPFITNFRVQEQAFYHDRHSFEAVLDLNAAPESVDLAEAERLAEDLRLLYVALTRSVWHCSLGVAPLVRRRGDKKGDTDVHQSALGRLLQKGEPQDAAGLRTCIEALCDDDIAWQTAQTGDNQPWQVNDVSTAELNAKTLQRLPGDNWRVTSYSGLQQRGHGIAQDLMPRLDVDAAGVASVVEEPTLTPHQFPRGASPGTFLHSLFEDLDFTQPVDPNWVREKLELGGFESQWEPVLTEWITAVLQAPLNETGVSLSQLSARNKQVEMEFYLPISEPLIASQLDTLIRQFDPLSAGCPPLEFMQVRGMLKGFIDLVFRHEGRYYLLDYKSNWLGEDSSAYTQQAMAAAMQAHRYDLQYQLYTLALHRYLRHRIADYDYEHHFGGVIYLFLRGVDKEHPQQGIYTTRPNAGLIALMDEMFAGMTLEEA
On to B3, for which the “basal DNA content” value in the assay with ΔrecA ΔrecB cells [2] was “No significant difference in DNA content”. Also, in the assay with BTH101 ΔrecB cells, the “RecB expression level relative to endogenous RecB” value is roughly 2 times. The “reckless DNA degradation after UV” value in the assay on ΔrecA ΔrecB cells [3] is “did not”.

B4: D1080A: RecB mutation that disrupts the interaction between RecB and RecA (protein, UniProt P08394 2-1180, looked up, variant D1080A)
RecBCD enzyme subunit RecB: SDVAETLDPLRLPLQGERLIEASAGTGKTFTIAALYLRLLLGLGGSAAFPRPLTVEELLVVTFTEAATAELRGRIRSNIHELRIACLRETTDNPLYERLLEEIDDKAQAAQWLLLAERQMDEAAVFTIHGFCQRMLNLNAFESGMLFEQQLIEDESLLRYQACADFWRRHCYPLPREIAQVVFETWKGPQALLRDINRYLQGEAPVIKAPPPDDETLASRHAQIVARIDTVKQQWRDAVGELDALIESSGIDRRKFNRSNQAKWIDKISAWAEEETNSYQLPESLEKFSQRFLEDRTKAGGETPRHPLFEAIDQLLAEPLSIRDLVITRALAEIRETVAREKRRRGELGFDDMLSRLDSALRSESGEVLAAAIRTRFPVAMIDEFQDTDPQQYRIFRRIWHHQPETALLLIGDPKQAIYAFRGADIFTYMKARSEVHAHYTLDTNWRSAPGMVNSVNKLFSQTDDAFMFREIPFIPVKSAGKNQALRFVFKGETQPAMKMWLMEGESCGVGDYQSTMAQVCAAQIRDWLQAGQRGEALLMNGDDARPVRASDISVLVRSRQEAAQVRDALTLLEIPSVYLSNRDSVFETLEAQEMLWLLQAVMTPERENTLRSALATSMMGLNALDIETLNNDEHAWDVVVEEFDGYRQIWRKRGVMPMLRALMSARNIAENLLATAGGERRLTDILHISELLQEAGTQLESEHALVRWLSQHILEPDSNASSQQMRLESDKHLVQIVTIHKSKGLEYPLVWLPFITNFRVQEQAFYHDRHSFEAVLDLNAAPESVDLAEAERLAEDLRLLYVALTRSVWHCSLGVAPLVRRRGDKKGDTDVHQSALGRLLQKGEPQDAAGLRTCIEALCDDDIAWQTAQTGDNQPWQVNDVSTAELNAKTLQRLPGDNWRVTSYSGLQQRGHGIAQDLMPRLDVDAAGVASVVEEPTLTPHQFPRGASPGTFLHSLFEDLDFTQPVDPNWVREKLELGGFESQWEPVLTEWITAVLQAPLNETGVSLSQLSARNKQVEMEFYLPISEPLIASQLDTLIRQFDPLSAGCPPLEFMQVRGMLKGFIDLVFRHEGRYYLLAYKSNWLGEDSSAYTQQAMAAAMQAHRYDLQYQLYTLALHRYLRHRIADYDYEHHFGGVIYLFLRGVDKEHPQQGIYTTRPNAGLIALMDEMFAGMTLEEA
As for B4, in the assay with RecA, the “interaction between RecB and RecA” value was “disrupts the interaction between RecB and RecA”. Also, in the assay with recB strains, the “survival rates after UV exposure” value is listed as “comparable to those observed in strains with a complete recB deletion”.

B5: RecB nuclease motif peptide (KQVEMEFY) (peptide)
peptide: Ac-KQVEMEFY-NH2
notes: also called QVEMEF peptide; RecB-derived QVEMEF peptide; source: synthetic peptide; bought: TAG Copenhagen
For the molecule B5, in assay [4], the Kd turned out to be 2 µM.
